Laboratory results published in the nanobody polyreactivity screen of Harvey et al. (2022).

Experiment: yeast display, Sf9 membrane polyspecificity reagent, FACS + sequencing; frameworks hold sequencing errors
Method in brief: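 Galactose-induced (36–48 hours) yeast carrying a synthetic nanobody display library were exposed to 10% biotinylated, detergent-solubilized Sf9 membrane reagent at 4 °C for 1 hour. FACS followed streptavidin microbead enrichment, using low and high (top ~1%) gates for expression (anti-HA) and reagent binding (streptavidin). Colony PCR, MiSeq 2 × 250 sequencing and CDR-length filtering followed. Labels for polyreactivity reflect the gate of origin.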

QVQLVESGGGIVQAGGSLRLSCAASGNNFSLNGMGWYRQAPGKEREFLAAITWSVGSTYYAYSVNGRLTISRDNAKNTVYLQMNSLKPEDTAVYDCAATVSDLYKNEYYYWGLGTQVTVSS
polyreactivity (PSR sort gate): low polyreactivity

QVQLVESGGGLVQAGGSLRLSSAASGRNFSRYAMGWYRQAPGKERELVAAINKSGGSTYYADSVKGRFTISRDNAKNTVYLQMNSLKPEDSAFYYCNAVYYWYKGDYWGQGSQVTVSS
polyreactivity (PSR sort gate): high polyreactivity

QVQLVESGGGLVQAGGSLRLSCAASGSTFKGNTMGWYRQAPGKERELVAAISWRGGSTYYADSVKGRFTISRDNAKNTVYLQMNSMKPEDTAVYYCAAKSHWWWRGYYYLGQGTQVTVSS
polyreactivity (PSR sort gate): high polyreactivity

QVQLVESGGGLVQAGGSLRLSCAASGSIFAKNAMGWYRQAPGKERELVAAISRGGNSYYADSVKGRFTISRDNAKNPVYFPMNSLTPEDTAVYYCAADYYWYVWEYPTYWYEYWGQGTQVTVSS
polyreactivity (PSR sort gate): high polyreactivity

QVQLVESGGGLVQAGGSLRLSCAASGGTFSYYAMGWYRQAPGKERELVAAINWSGASTYYADSVKGRFTISRDNAKNTVYLQMNSLKPEDTAVYYCNVYLGILYKYDYWGQGTQVTVSS
polyreactivity (PSR sort gate): low polyreactivity

QVQLVESGGGLVQAGGSLRLSCAASVITFWIYAMGWYRQAPGKERELVAAITGRGGSTYYADSVKGRFTISRDNAKNTVYLQLNSLKPEDTAFYYCAAESWYSTYDYWGQGTQVTVTS
polyreactivity (PSR sort gate): high polyreactivity

QVQLVESGGGLVQAGGSLRLSCAASGSTFPPNTMGWYRQAPGKERELVAAITQRGGNTYYADSVKGRFTISRDNAKNTVYLQMNSLKPEDTAVYYCATRYRYKGYYGQYEYWGQGTQVTVSS
polyreactivity (PSR sort gate): high polyreactivity

QVQLVESGGGLVQAGGSLRLSCAASGRIFVGYAMGWYRQAPGKETELVAAISRDGDNTFYADSVKGRFTISRDNAKNTVYLQMNSLKPEDTAVYYCAVDYWVWYGSAYAYDYYWGQGTQVTVSS
polyreactivity (PSR sort gate): low polyreactivity

QVQLVESGGGLVQTGGSLRLSCASSGRIFFDNAMGWYSQAPGKERELVAGIDSGGSTYYADSVKGRFSISRDNAKNTVYLQMNRLKPEDTAVYYCNADYPPSTQSPLLQSYDYWGHGTQVTVSS
polyreactivity (PSR sort gate): low polyreactivity

QVQLVESGGGLVPAGGSLLLSCAASGLTFYVYAMGWYRQAPGKERELVAAISSGGRTYYADSVKGRFTISRDNAKNTVYLQMNSLKPEDTAVYYCAAFRHRNYGYWGQGTQVTVSS
polyreactivity (PSR sort gate): high polyreactivity

QVQLVESGGGLVQAGGSLRLSCAASGIIFHYYAMGWYRQAPGKERDLVAAISGSGGSTYYADSVKGRFTISRDNAKNTVFLQMNSLKPEDTAVYYCAAILWGGGGYWGQGTQVTVSS
polyreactivity (PSR sort gate): high polyreactivity

QVQLVESGGGLVQAGGSLRLSCAASGFIFSENAMGWYRQAPGKERELVAAISDGGGSTYYADSVKGRFTISRDNAKNTVYLQMNSLKPEDTAVYYCNAVYHPKGPSGYGYWGQGTQVTVSS
polyreactivity (PSR sort gate): low polyreactivity

QVQLVESGGGLVQAGGSLRLSCAASGSTFESYAMVWYRQAPGKERELVAAISRRGGRTYYADSVKGRFTISRDNAKNTVYLQMNSLKPEDTAVYYCATDSSYYGSDDYWGQGTQVTVSS
polyreactivity (PSR sort gate): high polyreactivity

QVQLVESGGGLVQAGGSLRLSCAASGSTFNGNVMGWYRQAPGKERDFVAGISKSGGTTYYADSVKGRFTISRDNAKNTVYLQMNSLKPEDTAVYYCAARGRVRYYPQYYYWGQGTQVTVSS
polyreactivity (PSR sort gate): high polyreactivity

QVQLVESGGGLVQAGGSLRLSCAASGRIFTWYAMGWYRQAPGKERELVAAISWSGGRTYYADSVKGRFTISRDYSKNTVYLQMNSLKPEVTAVYYCAAREPGRTLDYLGQGTQVTVSS
polyreactivity (PSR sort gate): high polyreactivity

QVQLVESGGGLVQAGGSLRLSCAASGRIFGPYAMGWYRQAPGKERELVAAIRASSSSTYYADSVKGRFTISRDNAKNTVYVQMNSLKPEDTAVYYCAADWYYGYAWKYGYWGQGTQVTVSS
polyreactivity (PSR sort gate): low polyreactivity

QVQLVESGGGLVQAGGSLRLSCAASGSIFVYNAMGWYRQAPGKERELVASITWSGGRTYYADSVKGRFTISRDNAKNTVYLQMNSLKPEDTAVYYCAADSPRGYDYWGQGTQVTVSS
polyreactivity (PSR sort gate): high polyreactivity

QVQLVESGGGLVQAGGSLRLSCAASGSTFVSNAMGWYRQAPGKERELVAAISTSGGSTYYADSVKGRFTISRDNAKNTVYLQMNSLKPEDTAVYYCAKLLARGFRIWQDYDYWGQGTEVTVSS
polyreactivity (PSR sort gate): low polyreactivity

QVQLVDSGGGLVQAGGSLLLSCAASGSTINHKDMGLYRQAPGKERELVAAISWSGGSTTYADSVKGRFTISRDNAKNTVYLQMNSLKPEDTAVYYCAADWYYWGFIFDYWGQGTQVTVSS
polyreactivity (PSR sort gate): high polyreactivity

QVQLVESGGGLVQAGGSLRLSCAASGLIFSRYAMGWYRQAPGKERELVAVISWSGGRTYYSDSVKGRFTISRDNAKNTVYLQMNSLQPEDTAVYYCAADYKSGGSRYDYWGQGTQVTVSS
polyreactivity (PSR sort gate): high polyreactivity

QVQLVESGGGLVQAGGSLRLSCAASGSIFKRNPMGRYRQAPGKERELVAGISRRAGSTYYADYVKGRFTISRDNAKNTDYLQMNSLKPEDTAVYYCATYSFRGTYRYDYWGQGTQVTVSS
polyreactivity (PSR sort gate): high polyreactivity

QVQLVESGGGLVQAGGSLRLSCAASGSTFDENAMGWYRQAPGKERELVAVISDSGGSTYYADSVKGRFTISRDYAKNTVYFQMNSLKPEDTAVYYCAKDVPPEYPTSSYDYWGQGSQVTVSS
polyreactivity (PSR sort gate): low polyreactivity

QVQRVESGGGLVQAGGSLRLRCAASGRTFMTNAMGWYRQAPGTERELVAAISSGASTNYADSVKGRFTISRDNAKNTVYLQMNSLNPEDTAVYYCGAQLTDYQSKTLSYDYWGQGTQVTVSS
polyreactivity (PSR sort gate): low polyreactivity

QVQLVESGGGLVQAGGSLRLSCAASGRIFQFYTMGWYRQAPGKERELVASISSAGSTNYADSVKGRFTISRDNAKNTVYLQMNSLKPEDTAVYYCRYTYYWMGYWGQGTQVTVSS
polyreactivity (PSR sort gate): high polyreactivity

QVQLVETGGGLVQAGGSLRLSCAASGRIFYGNAMGWYRHAPGKERELVAAITRSGSSTYYADSVKGRFTISRDNAKNTVYLLMNSLKPEDTAVSYCAVKYFDYVGQYAYYYWGQGTQVTVSS
polyreactivity (PSR sort gate): high polyreactivity

QVQLVESGGGLVQAGGSLRLSCAASGRTFPYYAMGWYRQAPGKERELVAAITWSGGTTYYADSVKGRFTISRDNAKNTVYLQMNSLKPEDTAVYYCAADFYGPDGYDYWGQGTQVTVSS
polyreactivity (PSR sort gate): low polyreactivity

QVQLVESGGGLVQAGGSLRLSCAASGRILQYNDMGWYRPAPGKERELVAAIDWSGGITYYADSVKGRFTISRDNAKNTVYLQMNSLKPEDTAVYYCNADFEYSYLYRMEYWGQGTQVTVSS
polyreactivity (PSR sort gate): low polyreactivity

QVQLVESGGGLVQAGGSLRLSCAASGSIFSQYAMGWSRQAPGKERELVAAISSSGDSTNYADSVKGRFTISRDNAKNTVYLQMNSLKPEDTAVYYCAADFDWFIWGYDYWGQGTQVTVSS
polyreactivity (PSR sort gate): low polyreactivity

QVQLVESGGGLVQAGGRLRLSCAASGFIVDDNTIGWYRQAPGKEREVFAAISYSAGSTYYADSVKGRFTISRDNAKNTVYFQLNSLKPEDTAVYYCAAQHYWVTCYLSSYDYWGQGTQVSVSS
polyreactivity (PSR sort gate): low polyreactivity

QVQLVESGGGLVQAGGSLRLSCAASGLIFNLYAIGWNRQAPGKEREFVATITGIGGSTYYADSVKGRFTISRDNAMNTVYFQMNSLKPEDTAVYYCAADAWFLPYNYWGQGTQVTVSS
polyreactivity (PSR sort gate): low polyreactivity

QVQLVESGGGIVQAGGSLRLSCAASGITIYKYAMGWYRQAPGKERELLAAITRGGSTYYADSVKGRFTISRDNAKNTVYLQMNSLNPEDTAVYYCNKVYHWQTPGFGYGYWGQGTQVTVSS
polyreactivity (PSR sort gate): high polyreactivity

QVQLVESGGGLVQAGGSLRLSCAASGSIFTWNVMGWYRQAPGKERELVAAISSGGSTNYADSVKGRFTISRDNAKNTVYLQMNSLKPEDTAVYYCATYFRVWYRSYDYWGQGTQVTVSS
polyreactivity (PSR sort gate): high polyreactivity
